One block for each molecule: values may come before it.
Experiments:
SpsADH = molecular target: T1, SpsADH (Sphingomonas sp. A1, UniProt A0A075B5H4); test: photometric SpsADH enzyme assay, oxidation of substrates (NAD+/NADH at 340 nm); assay type: biochemical, Sphingomonas species A1
T1 sequence (A0A075B5H4 1-258): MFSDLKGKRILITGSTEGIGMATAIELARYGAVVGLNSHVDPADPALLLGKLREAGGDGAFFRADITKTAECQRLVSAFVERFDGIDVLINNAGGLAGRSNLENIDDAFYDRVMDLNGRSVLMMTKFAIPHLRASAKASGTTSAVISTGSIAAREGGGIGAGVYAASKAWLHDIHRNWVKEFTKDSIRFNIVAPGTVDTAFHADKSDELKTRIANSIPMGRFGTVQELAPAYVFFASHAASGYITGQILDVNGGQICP
Description: The activity of SpsADH was determined photometrically by monitoring the increase/decrease of NAD^+/NADH at 340 nm using the Infinite 200 pro photometer (Tecan Group Ltd.). Reactions were performed at 25 C in triplicate using 96-well microtiter plates. For determination of the substrate scope, the reaction mixtures contained 50 mM ammonium bicarbonate, pH 7.9, 0.3 mM NADH (or 1 mM NAD^+), a defined alcohol, aldehyde, aldonic acid or uronic acid as substrate and the purified enzyme. One unit of enzyme activity was defined as the amount of protein that reduces (oxidizes) 1 µmol of NAD(H)/min at […]. Calculation of Michaelis-Menten kinetics for determination of Km and vmax was done with Sigma-Plot 11.0 (Systat Software).

[1] = substrate: O=C(O)[C@H](O)[C@@H](O)[C@H](O)[C@H](O)CO; test: purified protein, by the assay type; details: other: oxidation of C5/C6 aldonates by SpsADH (Table 3); pH 7.9
[2] = substrate: O=C(O)[C@@H](O)[C@H](O)[C@H](O)[C@H](O)CO; test: purified protein, by the assay type; details: other: oxidation of C5/C6 aldonates by SpsADH (Table 3); pH 7.9
[3] = substrate: O=C(O)[C@H](O)[C@H](O)[C@H](O)[C@H](O)CO; test: purified protein, by the assay type; details: other: oxidation of C5/C6 aldonates by SpsADH (Table 3); pH 7.9
[4] = substrate: O=C(O)[C@@H](O)[C@@H](O)[C@H](O)[C@H](O)CO; test: purified protein, by the assay type; details: other: oxidation of C5/C6 aldonates by SpsADH (Table 3); pH 7.9
[5] = substrate: O=C(O)[C@H](O)[C@H](O)[C@H](O)CO; test: photometric SpsADH enzyme assay, oxidation of substrates (NAD+/NADH at 340 nm); assay type: biochemical, Sphingomonas species A1; details: other: oxidation of C5/C6 aldonates by SpsADH (Table 3); pH 7.9
Description: (§1) The activity of SpsADH was determined photometrically by monitoring the increase/decrease of NAD^+/NADH at 340 nm using the Infinite 200 pro photometer (Tecan Group Ltd.). Reactions were performed at 25 C in triplicate using 96-well microtiter plates. For determination of the substrate scope, the reaction mixtures contained 50 mM ammonium bicarbonate, pH 7.9, 0.3 mM NADH (or 1 mM NAD^+), a defined alcohol, aldehyde, aldonic acid or uronic acid as substrate and the purified enzyme. One unit of enzyme activity was defined as the amount of protein that reduces (oxidizes) 1 µmol of NAD(H)/min at 37 °C. Calculation of Michaelis-Menten kinetics for determination of Km and vmax was done with Sigma-Plot 11.0 (Systat Software).

[6] = substrate: O=C(O)C(=O)C[C@H](O)[C@H](O)CO; test: as above; assay type: biochemical, Sphingomonas species A1; details: other: oxidation of KDG by SpsADH, 50 mM ammonium bicarbonate pH 7.9, NAD+, 25 C
Description: as §1

[7] = substrate: O=C(O)[C@@H](O)[C@H](O)[C@H](O)CO; test: as above; assay type: biochemical, Sphingomonas species A1; details: other: oxidation of C5/C6 aldonates by SpsADH (Table 3); pH 7.9
Description: as §1

- oxidative activity (SpsADH; native substrate KDG, result in words): very low oxidative activity
Molecule: O=C(O)C(=O)C[C@H](O)[C@H](O)CO [KDG, 2-keto-3-deoxy-D-gluconate]

Molecule: OC[C@@H](O)[C@@H](O)[C@H](O)[C@@H](O)CO [D-sorbitol]
- activity (SpsADH; oxidation by SpsADH, polyol): 1.7 mU/mg
- vmax (SpsADH; oxidation of D-sorbitol to L-gulose by SpsADH): 6.2 ± 0.1 mU/mg

B1: SpsADH (Sphingomonas sp. A1) (protein)
chain: T1 sequence (A0A075B5H4 1-258)
- Km [1]: 15.7 ± 1.6 mM
- Vmax [1]: 1.28 ± 0.04 U/mg
- kcat [1]: 0.63 ± 0.02 s⁻¹
- kcat/Km [1]: 40.0 ± 5.4 M⁻¹ s⁻¹
- Km [2]: 27.0 ± 4.2 mM
- Vmax [2]: 0.32 ± 0.01 U/mg
- kcat [2]: 0.16 ± 0.01 s⁻¹
- kcat/Km [2]: 5.8 ± 1.2 M⁻¹ s⁻¹
- Km [3]: 17.1 ± 2.4 mM
- Vmax [3]: 0.28 ± 0.01 U/mg
- kcat [3]: 0.14 ± 0.01 s⁻¹
- kcat/Km [3]: 8.1 ± 1.4 M⁻¹ s⁻¹
- Km [4]: 18.3 ± 1.3 mM
- Vmax [4]: 0.52 ± 0.01 U/mg
- kcat [4]: 0.26 ± 0.00 s⁻¹
- kcat/Km [4]: 13.9 ± 1.2 M⁻¹ s⁻¹
- Km [5]: 16.9 ± 1.4 mM
- Vmax [5]: 0.01 ± 0.00 U/mg
- kcat [5]: 0.01 ± 0.00 s⁻¹
- kcat/Km [5]: 0.3 ± 0.1 M⁻¹ s⁻¹
- Km [6]: 20.9 ± 3.16 mM
- Vmax [6]: 1.81 ± 0.009 U/mg
- kcat [6]: 0.89 ± 0.047 s⁻¹
- kcat/Km [6]: 42.5 ± 8.68 M⁻¹ s⁻¹
- Km [7]: 25.6 ± 2.6 mM
- Vmax [7]: 0.01 ± 0.00 U/mg
- kcat [7]: 0.01 ± 0.00 s⁻¹
- kcat/Km [7]: 0.2 ± 0.0 M⁻¹ s⁻¹

Reference: patent EP3460067A1, “PROCESS FOR ENZYMATIC OXIDATION OF LINEAR CARBOHYDRATES” (Technische Universität München, priority 2017, dated 2019)
